The values that follow come from patent publication US20220213151A1.

Like-named read-outs stand apart in the source and are kept apart here.

Assay [1] has as its target rhu EGFR (Fc) (human (rhu)) (UniProt P00533). Kind of assay: pH 6.
The target is the same in assay [2].

As a reminder, the Kd is the equilibrium constant for the complex coming apart. Higher therefore signals lower affinity. For “A-dmDT390-EGF (other; other documents disagree on this pair)”, the results for the Kd in assay [1] and in assay [2] were 102 nM and 5.81 nM, respectively.
